Measurements published in the supplement of paper PMC9112550, “Optimization of the antimicrobial peptide Bac7 by deep mutational scanning” (BMC Biology, 2022).

System: Escherichia coli TOP10
Experiment: shrunken log2 fold change of peptide-encoding DNA abundance (4.5 h post-induction vs induction); higher = less antimicrobial activity (less host growth inhibition)
Settings: time post-induction: 4.5 h; library: site-saturation at positions 5, 18, 19, 20
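Also: peptides expressed intracellularly from a pBAD plasmid library in pooled LB shake-flask culture, induced with 0.3% L-arabinose, DNA abundance read by NGS, three biological replicates, DESeq2 with apeglm shrinkage.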

Sequence	shrunken log2 fold change
RRIRARPPRLPRPRPRPHFKPRP	0.00608
RRIRFRPPRLPRPRPRPYAYPRP	-0.0128
RRIRVRPPRLPRPRPRPTDYPRP	-0.479
RRIRHRPPRLPRPRPRPSPYPRP	-0.703
RRIRCRPPRLPRPRPRPANAPRP	-0.0408
RRIRTRPPRLPRPRPRPYHEPRP	-0.0196
RRIRARPPRLPRPRPRPKYMPRP	-0.477
RRIRKRPPRLPRPRPRPHQKPRP	-0.0675
RRIRFRPPRLPRPRPRPTYWPRP	0.385
RRIRTRPPRLPRPRPRPSWQPRP	-0.073
RRIRLRPPRLPRPRPRPDRGPRP	0.0151
RRIRGRPPRLPRPRPRPWTNPRP	0.0419
RRIRWRPPRLPRPRPRPFLAPRP	-0.0712
RRIRRRPPRLPRPRPRPNVVPRP	0.0745
RRIRQRPPRLPRPRPRPSDMPRP	0.0447
RRIRRRPPRLPRPRPRPWLDPRP	-0.0721
RRIRHRPPRLPRPRPRPMNNPRP	-0.759
RRIRWRPPRLPRPRPRPSQTPRP	0.657
RRIRHRPPRLPRPRPRPRRMPRP	0.254
RRIRTRPPRLPRPRPRPDFYPRP	-0.241
RRIRWRPPRLPRPRPRPVFQPRP	0.183
RRIRQRPPRLPRPRPRPCWEPRP	-0.126
RRIRFRPPRLPRPRPRPYDKPRP	-0.374
RRIRSRPPRLPRPRPRPFYSPRP	-0.131
RRIRLRPPRLPRPRPRPRQPPRP	0.111

Sequence	shrunken log2 fold change
RRIRLRPPRLPRPRPRPPQVPRP	0.162
RRIRGRPPRLPRPRPRPMSQPRP	0.213
RRIRQRPPRLPRPRPRPPKAPRP	-0.058
RRIRCRPPRLPRPRPRPLSPPRP	0.107
RRIRWRPPRLPRPRPRPTTLPRP	-0.0826
RRIRMRPPRLPRPRPRPIEHPRP	-0.0129
RRIRHRPPRLPRPRPRPWAQPRP	0.0333
RRIRRRPPRLPRPRPRPESKPRP	0.265
RRIRYRPPRLPRPRPRPMNLPRP	-0.0114
RRIRYRPPRLPRPRPRPHWYPRP	-1.02
RRIRRRPPRLPRPRPRPCCVPRP	0.415
RRIRPRPPRLPRPRPRPLLRPRP	1.73
RRIRKRPPRLPRPRPRPMRPPRP	1.22
RRIRSRPPRLPRPRPRPPMDPRP	-0.0324
RRIRNRPPRLPRPRPRPRDPPRP	0.457
RRIRIRPPRLPRPRPRPVSAPRP	0.0887
RRIRLRPPRLPRPRPRPHDQPRP	0.276
RRIRCRPPRLPRPRPRPSVAPRP	-0.276
RRIRARPPRLPRPRPRPALPPRP	0.309
RRIRERPPRLPRPRPRPDNVPRP	0.0262
RRIRYRPPRLPRPRPRPPLPPRP	0.184
RRIRYRPPRLPRPRPRPFISPRP	-0.341
RRIRVRPPRLPRPRPRPVWAPRP	0.394
RRIRVRPPRLPRPRPRPASGPRP	-0.188
RRIRERPPRLPRPRPRPASKPRP	-0.12

Sequence	shrunken log2 fold change
RRIRERPPRLPRPRPRPGSEPRP	-0.0924
RRIRGRPPRLPRPRPRPCLIPRP	-0.183
RRIRFRPPRLPRPRPRPYINPRP	-0.647
RRIRQRPPRLPRPRPRPCCWPRP	0.0955
RRIRTRPPRLPRPRPRPFDFPRP	-0.271
RRIRIRPPRLPRPRPRPMCAPRP	-0.127
RRIRGRPPRLPRPRPRPETNPRP	1.95
RRIRRRPPRLPRPRPRPREEPRP	0.919
RRIRFRPPRLPRPRPRPGIEPRP	-0.0616
RRIRGRPPRLPRPRPRPYHSPRP	-0.861
RRIRPRPPRLPRPRPRPLEFPRP	-0.241
RRIRYRPPRLPRPRPRPVGFPRP	-0.308
RRIRTRPPRLPRPRPRPCNSPRP	-0.0206
RRIRNRPPRLPRPRPRPHVPPRP	-0.528
RRIRVRPPRLPRPRPRPTGCPRP	0.0918
RRIRSRPPRLPRPRPRPEFWPRP	0.281
RRIRMRPPRLPRPRPRPWYDPRP	0.0249
RRIRHRPPRLPRPRPRPPQLPRP	-0.215
RRIRLRPPRLPRPRPRPYHTPRP	-0.484
RRIRTRPPRLPRPRPRPREEPRP	0.368
RRIRDRPPRLPRPRPRPYILPRP	-0.592
RRIRCRPPRLPRPRPRPYEKPRP	-0.0213
RRIRSRPPRLPRPRPRPDPMPRP	-0.0673
RRIRCRPPRLPRPRPRPTWEPRP	-0.0631
RRIRSRPPRLPRPRPRPERYPRP	-0.037

Sequence	shrunken log2 fold change
RRIRHRPPRLPRPRPRPMYYPRP	-0.681
RRIRFRPPRLPRPRPRPSTTPRP	-0.362
RRIRWRPPRLPRPRPRPRFVPRP	0.139
RRIRKRPPRLPRPRPRPIAKPRP	0.141
RRIRCRPPRLPRPRPRPGFCPRP	0.124
RRIRGRPPRLPRPRPRPDDWPRP	1.5
RRIRGRPPRLPRPRPRPPVCPRP	0.213
RRIRIRPPRLPRPRPRPDRNPRP	-0.913
RRIRQRPPRLPRPRPRPWPAPRP	0.0128
RRIRQRPPRLPRPRPRPMLEPRP	0.0533
RRIRCRPPRLPRPRPRPHPIPRP	-0.229
RRIRDRPPRLPRPRPRPEFHPRP	0.858
RRIRGRPPRLPRPRPRPWAEPRP	2.19
RRIRWRPPRLPRPRPRPDRRPRP	-0.0279
RRIRMRPPRLPRPRPRPPWFPRP	0.568
RRIRERPPRLPRPRPRPNTCPRP	-1.13
RRIRNRPPRLPRPRPRPYRDPRP	-0.0123
RRIRERPPRLPRPRPRPLRMPRP	0.167
RRIRFRPPRLPRPRPRPFSNPRP	0.0406
RRIRERPPRLPRPRPRPNAFPRP	-0.568
RRIRYRPPRLPRPRPRPFMEPRP	-0.0943
RRIRSRPPRLPRPRPRPDNMPRP	-0.208
RRIRFRPPRLPRPRPRPADAPRP	0.147
RRIRRRPPRLPRPRPRPILHPRP	-0.0819
RRIRKRPPRLPRPRPRPGGDPRP	0.16

Sequence	shrunken log2 fold change
RRIRGRPPRLPRPRPRPYNHPRP	-0.983
RRIRHRPPRLPRPRPRPMRKPRP	0.0179
RRIRMRPPRLPRPRPRPCSVPRP	-0.0402
RRIRERPPRLPRPRPRPEWPPRP	0.102
RRIRLRPPRLPRPRPRPVQYPRP	-0.0382
RRIRVRPPRLPRPRPRPAAEPRP	0.109
RRIRHRPPRLPRPRPRPHLNPRP	-0.00458
RRIRFRPPRLPRPRPRPHWWPRP	0.154
RRIRCRPPRLPRPRPRPSPGPRP	0.0883
RRIRDRPPRLPRPRPRPQHFPRP	-0.422
RRIRWRPPRLPRPRPRPVSHPRP	-0.0115
RRIRMRPPRLPRPRPRPFELPRP	0.0846
RRIRERPPRLPRPRPRPYNCPRP	0.275
RRIRKRPPRLPRPRPRPCCSPRP	-0.189
RRIRLRPPRLPRPRPRPLRDPRP	0.356
RRIRYRPPRLPRPRPRPHIPPRP	-0.452
RRIRGRPPRLPRPRPRPNTKPRP	-0.066
RRIRARPPRLPRPRPRPRLKPRP	0.547
RRIRKRPPRLPRPRPRPGMYPRP	0.102
RRIRDRPPRLPRPRPRPQVCPRP	0.19
RRIRERPPRLPRPRPRPTSVPRP	-0.028
RRIRCRPPRLPRPRPRPAGWPRP	0.719
RRIRPRPPRLPRPRPRPHDLPRP	0.0288
RRIRSRPPRLPRPRPRPTFKPRP	-0.0617
RRIRTRPPRLPRPRPRPPDVPRP	0.176

Sequence	shrunken log2 fold change
RRIRARPPRLPRPRPRPKACPRP	0.19
RRIRSRPPRLPRPRPRPVMWPRP	0.459
RRIRYRPPRLPRPRPRPLCQPRP	-0.648
RRIRIRPPRLPRPRPRPDGTPRP	-0.303
RRIRIRPPRLPRPRPRPRGKPRP	0.086
RRIRERPPRLPRPRPRPWCQPRP	-0.0135
RRIRRRPPRLPRPRPRPPIHPRP	-0.11
RRIRWRPPRLPRPRPRPFLTPRP	2.56
RRIRCRPPRLPRPRPRPRPNPRP	0.478
RRIRLRPPRLPRPRPRPDGNPRP	-0.0479
RRIRMRPPRLPRPRPRPPPGPRP	1.86
RRIRHRPPRLPRPRPRPTIDPRP	-0.252
RRIRERPPRLPRPRPRPAVKPRP	-0.0221
RRIRIRPPRLPRPRPRPIFIPRP	-0.317
RRIRWRPPRLPRPRPRPQFKPRP	-0.0678
RRIRWRPPRLPRPRPRPVEIPRP	-0.206
RRIRHRPPRLPRPRPRPQRYPRP	-0.0589
RRIRCRPPRLPRPRPRPMGYPRP	-0.0984
RRIRYRPPRLPRPRPRPPLQPRP	0.187
RRIRGRPPRLPRPRPRPFDAPRP	-0.00556
RRIRFRPPRLPRPRPRPALFPRP	0.173
RRIRLRPPRLPRPRPRPKHCPRP	-0.207
RRIRIRPPRLPRPRPRPAWHPRP	0.031
RRIRHRPPRLPRPRPRPQGTPRP	-0.284
RRIRFRPPRLPRPRPRPNGNPRP	-0.377
